The target of assay [1] is human CD11b I-domain (huCD11b-I) (human). Nature of the assay: SAXS.
Assay [2] addresses mouse CD11b I-domain (moCD11b-I) (mouse) (UniProt P05555). Description: BLI.
In assay [3] the target is T1, leukocidin GH (LukGH) wild-type (Staphylococcus aureus USA300 (ST8) …).
T1 chain 1: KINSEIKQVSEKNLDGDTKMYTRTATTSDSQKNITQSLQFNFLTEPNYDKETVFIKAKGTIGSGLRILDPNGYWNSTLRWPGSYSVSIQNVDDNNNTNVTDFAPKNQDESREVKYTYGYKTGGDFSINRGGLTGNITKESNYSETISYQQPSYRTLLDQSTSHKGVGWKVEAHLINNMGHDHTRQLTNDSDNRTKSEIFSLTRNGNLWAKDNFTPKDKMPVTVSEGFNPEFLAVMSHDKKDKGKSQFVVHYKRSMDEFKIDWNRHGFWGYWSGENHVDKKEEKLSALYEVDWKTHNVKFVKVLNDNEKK
T1 chain 2: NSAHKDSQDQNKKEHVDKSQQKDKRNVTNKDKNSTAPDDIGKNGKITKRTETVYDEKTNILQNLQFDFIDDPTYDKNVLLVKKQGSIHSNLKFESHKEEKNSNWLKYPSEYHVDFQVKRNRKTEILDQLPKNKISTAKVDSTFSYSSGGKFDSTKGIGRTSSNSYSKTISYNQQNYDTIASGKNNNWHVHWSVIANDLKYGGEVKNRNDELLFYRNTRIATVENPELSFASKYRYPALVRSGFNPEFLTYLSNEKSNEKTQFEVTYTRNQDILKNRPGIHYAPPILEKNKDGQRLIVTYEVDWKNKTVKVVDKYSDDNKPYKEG
Description: SAXS.

For orientation: stoichiometry N means a count of units in the complex or per binding partner. What is called Kd is the equilibrium constant for the complex coming apart.

Sequence of mouse CD11b I-domain (moCD11b-I) (mouse) (P05555 143-337): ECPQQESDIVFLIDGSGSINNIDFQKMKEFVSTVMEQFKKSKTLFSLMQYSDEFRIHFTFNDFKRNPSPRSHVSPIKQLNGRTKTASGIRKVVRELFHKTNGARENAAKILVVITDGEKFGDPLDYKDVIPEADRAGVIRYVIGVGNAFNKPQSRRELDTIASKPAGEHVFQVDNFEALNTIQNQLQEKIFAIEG

“leukocidin GH (LukGH) wild-type (complex)” gave a stoichiometry N in assay [1] of 1. For the same molecule, the equilibrium dissociation constant (Kd) in assay [2] stood at 1000 nM.

Consider LukGH^K319A (complex), for which the Kd in assay [2] is 63 nM.

B1: Fab of αLukGH-mAb#5.H1H2 (Fab, V domains shown)
VH: ELQLQESGPGLVKPSETLSLTCTVSGGSISSGSYYWDWIRQPPGKGLEWIGNIYKSGSTYYNPSLKSRVTISVDTSKNQFSLKLSSVTAADTAVYYCARERGMHYMDVWGKGTTVTVSS
VL: DIQMTQSPSSLSASVGDRVTITCRASQSINSYLNWYQQKPGKAPKLLIYAASSLQSGVPSRFSGSGSGTDFTLTISSLQPEDFATYYCQQQFDPPFTFGGGTKVEIK
Regarding B1, in assay [3], the binding result was “binds”.

For the origin of these results see publication PMC6955338 (Proceedings of the National Academy of Sciences of the …, 2019).
